Assay results: patent US20180224449A1

What follows are substances tested against biotinylated Opr86 extracellular loop synthetic peptide (assay: solution biopanning on biotinylated Opr86 loop peptide in Bushnell-Haas pH 8.5 with 1% Jet-A, three rounds; share of clones).

“M13 phage displaying OPP1 (PRIRKSH) (peptide)” was tested. Which % Abundance did it give?
The % Abundance was 3%.

Which % Abundance does the source give for “M13 phage displaying OPP2 (MHNLNLL) (peptide)” here?
Its % Abundance is 2%.

For “M13 phage displaying OPP3 (LPSTIHR) (peptide)”, which % Abundance is on record?
Its % Abundance is 2%.

Which % Abundance does the source give for “M13 phage displaying OPP4 (LRPLMNR) (peptide)” here?
The % Abundance was 3%.

For “M13 phage displaying OPP5 (IITMKRR) (peptide)”, which % Abundance is on record?
The % Abundance was 3%.

For “M13 phage displaying OPP6 (RKKSRIR) (peptide)”, which % Abundance is on record?
Its % Abundance is 2%.

Each substance was assayed against biotinylated OprF1 synthetic peptide (P. aeruginosa) (assay: pooled monoclonal phages pulled down on biotinylated OprF1 in Bushnell-Haas with 1% Jet-A; unamplified eluate, share of 30 sequenced clones).

“M13 phage displaying the PPKINIM peptide” was tested. Which relative percent abundance did it give?
Its relative percent abundance is 3%.
